The record followed here is patent US20260070987A1.

The target of the assay is equine FcRn (large alpha subunit p51) in complex with equine beta-2-microglobulin (equine) (UniProt F6XZ61). In words: SPR (Biacore), pH 6. A general note: Surface plasmon resonance follows binding to a sensor surface in real time, without labels.

Positions count from the first letter of the chain named. Numbers in names are those of the source.

Sequence of UniProt F6XZ61 (F6XZ61 entry or part of it, one chain of several): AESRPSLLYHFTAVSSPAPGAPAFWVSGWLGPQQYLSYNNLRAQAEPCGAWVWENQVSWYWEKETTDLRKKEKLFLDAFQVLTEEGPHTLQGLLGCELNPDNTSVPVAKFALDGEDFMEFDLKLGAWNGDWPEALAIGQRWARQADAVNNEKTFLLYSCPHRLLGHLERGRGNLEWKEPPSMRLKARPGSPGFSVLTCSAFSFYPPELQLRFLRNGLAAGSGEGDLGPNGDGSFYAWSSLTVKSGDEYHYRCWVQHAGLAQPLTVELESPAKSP

B1: equine IgG7 D312E mutant (antibody, part only; not given: variable domains, not shown: another chain or arm of the molecule)
constant: ASTTAPKVFPLASHSAATSGSTVALGCLVSSYFPEPVTVSWNSGALTSGVHTFPSVLQSSGLYSLSSMVTVPASSLKSQTYICNVAHPASSTKVDKKIVIKECGGCPTCPECLSVGPSVFIFPPKPKDVLMISRTPTVTCVVVDVGHDFPDVQFNWYVDGVETHTATTEPKQEQNNSTYRVVSILAIQHKEWLSGKEFKCKVNNQALPAPVQKTISKPTGQPREPQVYVLAPHRDELSKNKVSVTCLVKDFYPTDIDIEWKSNGQPEPETKYSTTPAQLDSDGSYFLYSKLTVETNRWQQGTTFTCAVMHEALHNHYTEKSVSKSPGK
In general, Kd refers to the equilibrium constant for the complex coming apart. With B1, the dissociation constant (Kd) is 42.5 nM. This counts as double-digit nanomolar.

B2: equine IgG7 D312Q mutant (antibody, part only; not given: variable domains, not shown: another chain or arm of the molecule)
constant: B1 constant with E191Q
In turn, B2 showed a Kd of 13.6 nM.

B3: equine IgG7 Y436K mutant (antibody, part only; not given: variable domains, not shown: another chain or arm of the molecule)
constant: B1 constant with E191D, Y317K
B3 had a Kd of 74 nM. This Kd lies about 5.4-fold higher than the previous one.

B4: equine IgG7 T286E mutant (antibody, part only; not given: variable domains, not shown: another chain or arm of the molecule)
constant: B1 constant with T165E, E191D
B4 returned a Kd of 35.5 nM.

B5: equine IgG7 Y436A mutant (antibody, part only; not given: Variable domains, not shown: another chain or arm of the molecule)
constant: B1 constant with E191D, Y317A
As to B5, the equilibrium dissociation constant (Kd) turned out to be 13.3 nM.

B6: equine IgG7 Y436W mutant (antibody, part only; not given: Variable domains, not shown: another chain or arm of the molecule)
constant: B1 constant with E191D, Y317W
In turn, B6 displayed a Kd of 28.2 nM.

B7: equine IgG7 Y436N mutant (antibody, part only; not given: Variable domains, not shown: another chain or arm of the molecule)
constant: B1 constant with E191D, Y317N
For B7, the Kd is 65.5 nM.

B8: equine IgG7 T286A mutant (antibody, part only; not given: variable domains, not shown: another chain or arm of the molecule)
constant: B1 constant with T165A, E191D
Take B8: the dissociation constant (Kd) came out at 110 nM.

B9: equine IgG7 Y436D mutant (antibody, part only; not given: Variable domains, not shown: another chain or arm of the molecule)
constant: B1 constant with E191D, Y317D
As to B9, the Kd worked out at 11.6 nM.

B10: equine IgG7 Y436F mutant (antibody, part only; not given: variable domains, not shown: another chain or arm of the molecule)
constant: B1 constant with E191D, Y317F
B10: the Kd stood at 9.3 nM.

B11: equine IgG7 Y436V mutant (antibody, part only; not given: Variable domains, not shown: another chain or arm of the molecule)
constant: B1 constant with E191D, Y317V
The molecule B11 had a Kd of 6.7 nM.

B12: equine IgG7 D312T mutant (antibody, part only; not given: variable domains, not shown: another chain or arm of the molecule)
constant: B1 constant with E191T
Consider B12, for which the Kd was determined as 9.9 nM.

B13: equine IgG7 D312P mutant (antibody, part only; not given: variable domains, not shown: another chain or arm of the molecule)
constant: B1 constant with E191P
In turn, B13 had an equilibrium dissociation constant (Kd) of 8 nM. This Kd and that of the molecule before are within 1.5-fold of each other.

B14: equine IgG7 Y436Q mutant (antibody, part only; not given: Variable domains, not shown: another chain or arm of the molecule)
constant: B1 constant with E191D, Y317Q
Molecule B14 yielded a Kd of 9.1 nM.

B15: equine IgG7 D312R mutant (antibody, part only; not given: Variable domains, not shown: another chain or arm of the molecule)
constant: B1 constant with E191R
Consider B15, for which the Kd was found to be 9 nM.

B16: equine IgG7 Y436M mutant (antibody, part only; not given: variable domains, not shown: another chain or arm of the molecule)
constant: B1 constant with E191D, Y317M
Take B16: the Kd worked out at 5.5 nM.

B17: equine IgG7 D312S mutant (antibody, part only; not given: variable domains, not shown: another chain or arm of the molecule)
constant: B1 constant with E191S
Molecule B17 gave a Kd of 9.6 nM.

B18: equine IgG7 D312L mutant (antibody, part only; not given: variable domains, not shown: another chain or arm of the molecule)
constant: B1 constant with E191L
Regarding B18, the Kd is 5.7 nM. This Kd is about 1.7-fold lower than that of the molecule before.

B19: equine IgG7 D312F mutant (antibody, part only; not given: Variable domains, not shown: another chain or arm of the molecule)
constant: B1 constant with E191F
Take B19: the dissociation constant (Kd) was determined as 8.6 nM. Compared with the last molecule, the Kd is about 1.5-fold higher.

B20: equine IgG7 D312V mutant (antibody, part only; not given: variable domains, not shown: another chain or arm of the molecule)
constant: B1 constant with E191V
Molecule B20 showed an equilibrium dissociation constant (Kd) of 11.3 nM.

B21: equine IgG7 D312Y mutant (antibody, part only; not given: variable domains, not shown: another chain or arm of the molecule)
constant: B1 constant with E191Y
For the molecule B21, the equilibrium dissociation constant (Kd) came out at 9.4 nM. This Kd and that of the molecule before are within 1.5-fold of each other.

B22: equine IgG7 D312G mutant (antibody, part only; not given: Variable domains, not shown: another chain or arm of the molecule)
constant: B1 constant with E191G
Consider B22, for which the Kd was found to be 38.4 nM.

B23: equine IgG7 T286H mutant (antibody, part only; not given: variable domains, not shown: another chain or arm of the molecule)
constant: B1 constant with T165H, E191D
Take B23: the Kd stood at 16 nM. This Kd is about 2.4-fold lower than that of the molecule before.

B24: equine IgG7 D312N mutant (antibody, part only; not given: Variable domains, not shown: another chain or arm of the molecule)
constant: B1 constant with E191N
Regarding B24, the Kd came out at 25.3 nM.

B25: equine IgG7 D312M mutant (antibody, part only; not given: variable domains, not shown: another chain or arm of the molecule)
constant: B1 constant with E191M
In turn, B25 showed a Kd of 6.1 nM.

B26: equine IgG7 T286C mutant (antibody, part only; not given: variable domains, not shown: another chain or arm of the molecule)
constant: B1 constant with T165C, E191D
Take B26: the Kd worked out at 84.4 nM.

B27: equine IgG7 D312H mutant (antibody, part only; not given: variable domains, not shown: another chain or arm of the molecule)
constant: B1 constant with E191H
Turning to B27, the Kd came out at 10.4 nM. This Kd is about 8.1-fold lower than that of the molecule before.

B28: equine IgG7 D312I mutant (antibody, part only; not given: variable domains, not shown: another chain or arm of the molecule)
constant: B1 constant with E191I
B28 registered a dissociation constant (Kd) of 15.2 nM.

B29: equine IgG7 Y436S mutant (antibody, part only; not given: variable domains, not shown: another chain or arm of the molecule)
constant: B1 constant with E191D, Y317S
With B29, the Kd worked out at 169 nM.

B30: equine IgG7 Y436I mutant (antibody, part only; not given: Variable domains, not shown: another chain or arm of the molecule)
constant: B1 constant with E191D, Y317I
In turn, B30 yielded a dissociation constant (Kd) of 25.1 nM.

B31: equine IgG7 D312K mutant (antibody, part only; not given: variable domains, not shown: another chain or arm of the molecule)
constant: B1 constant with E191K
For B31, the Kd is 16.4 nM.

B32: equine IgG7 Y436C mutant (antibody, part only; not given: variable domains, not shown: another chain or arm of the molecule)
constant: B1 constant with E191D, Y317C
Regarding B32, the dissociation constant Kd worked out at 12.5 nM.

B33: equine IgG7 T286F mutant (antibody, part only; not given: variable domains, not shown: another chain or arm of the molecule)
constant: B1 constant with T165F, E191D
For B33, the Kd is 7.8 nM.

B34: equine IgG7 D312W mutant (antibody, part only; not given: variable domains, not shown: another chain or arm of the molecule)
constant: B1 constant with E191W
B34 had a Kd of 13.2 nM.

B35: equine IgG7 Y436R mutant (antibody, part only; not given: variable domains, not shown: another chain or arm of the molecule)
constant: B1 constant with E191D, Y317R
On to B35, for which the Kd came out at 7.7 nM.

B36: equine IgG7 T286G mutant (antibody, part only; not given: variable domains, not shown: another chain or arm of the molecule)
constant: B1 constant with T165G, E191D
Molecule B36 had an equilibrium dissociation constant (Kd) of 18.2 nM. Against the preceding molecule, the Kd is about 2.4-fold higher.

B37: equine IgG7 Y436G mutant (antibody, part only; not given: variable domains, not shown: another chain or arm of the molecule)
constant: B1 constant with E191D, Y317G
Molecule B37 showed a Kd of 51.7 nM.

B38: equine IgG7 Y436E mutant (antibody, part only; not given: variable domains, not shown: another chain or arm of the molecule)
constant: B1 constant with E191D, Y317E
In turn, B38 had a Kd of 13.4 nM.

B39: equine IgG7 Y436T mutant (antibody, part only; not given: variable domains, not shown: another chain or arm of the molecule)
constant: B1 constant with E191D, Y317T
In turn, B39 had a Kd of 36.2 nM.

B40: equine IgG7 T286D mutant (antibody, part only; not given: Variable domains, not shown: another chain or arm of the molecule)
constant: B1 constant with T165D, E191D
For B40, the Kd amounted to 47.5 nM.
